Source: paper PMC4158905
Values belong to the substance of their own block, whether it stands above or below them.

What was measured:
[1] = target: recombinant human cytoplasmic dynein 1 complex (human) (UniProt Q14204)
[2] = target: dynein heavy chain (DYNC1H1) (human) (UniProt Q14204); assay: SEC-MALS; purified recombinant dynein complex; single peak of approximately 1.40 MDa against 1.42 MDa expected for a dimeric complex of all six chains
[3] = target: recombinant human cytoplasmic dynein 1 complex (human) (UniProt Q14204); assay: single-molecule two-colour co-localisation (TIRF microscopy); roughly equimolar TMR–dynein and Alexa647–dynein mixed, puncta on microtubules scored for both dyes in kymographs, 2.5 mM ATP; done without and with dynactin and BICD2N

proportion of TMR–dynein complexes with unidirectional minus end-directed movement on microtubules, with dynactin and BICD2N at 20 BICD2N dimers: 1 dynein complex: 2 dynactin complexes [1]: 23%
Substance: native dynactin complex from pig brains (from UniProt A0A287B8J2 1-1281; A0A5G2QD80 1-405)

stoichiometry N [2]: 2
Substance: dynein heavy chain (DYNC1H1), Q14204 1-4646

percent of dynein puncta that contained both dyes [3]: 6%
Substance: recombinant human cytoplasmic dynein 1 complex (from UniProt Q14204 1-4646; O43237-1 1-492; P63172 1-113; Q9NP97-1 1-96; P63167 1-89)
